Target: MyoD (UniProt P10085 1-318)
Experiment: EMSA

MyoD, sequence (P10085 whole entry): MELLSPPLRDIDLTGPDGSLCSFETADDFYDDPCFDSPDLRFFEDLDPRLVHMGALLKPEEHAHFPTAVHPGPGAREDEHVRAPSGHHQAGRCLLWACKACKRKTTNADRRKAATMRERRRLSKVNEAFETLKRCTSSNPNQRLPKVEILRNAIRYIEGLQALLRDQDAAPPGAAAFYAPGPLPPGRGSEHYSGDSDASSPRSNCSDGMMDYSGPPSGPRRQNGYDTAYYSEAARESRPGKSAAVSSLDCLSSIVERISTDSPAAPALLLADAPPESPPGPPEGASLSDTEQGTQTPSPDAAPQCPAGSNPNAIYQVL

B1: G'2 bimolecular tetraplex integrin 26/integrin 29 (structured_DNA)
DNA 1: CATGGGGGCGGGAAGGGGCGGGGTCT
DNA 2: AAAGGTGGGGCGGCAGGGCGCAAGGCAAT
binding result: binds

Reference: PMC1133794
